Source: patent US20210246166A1 (Bayer, published 2021)
Numbered stars: 1 amine (or outer) side, 2 acyl side, 3 side chain; on linkers, the order of the positions; unused ones are H or OH. Bridge positions count the residues as written; N and C are the ends. Square brackets hold non-standard residues; d marks the D form. Ends that are not written are not given here. X4 = (1S,3R)‑3‑(Amino)cyclopentanecarboxylic acid, O=C([C@H]1CC[C@@H](N[*:1])C1)[*:2]; X9 = (S)‑3‑(1-Pyrrolidine-2-yl)‑propionic acid, O=C(CC[C@@H]1CCCN1[*:1])[*:2]; NH(CH2CH2O)5CH2CO = O=C(COCCOCCOCCOCCOCCN[*:1])[*:2]; Oic = O=C(O)[C@@H]1C[C@@H]2CCCC[C@@H]2N1; βPro(3S) = O=C([C@H]1CCN([*:1])C1)[*:2]; tBuAla = CC(C)(C)C[C@H](N)C(=O)O; Cba = N[C@@H](CC1CCC1)C(=O)O; Pen = CC(C)(S)[C@H](N)C(=O)O; β3hP = O=C(O)C[C@@H]1CCCN1; NMeC = CN[C@@H](CS)C(=O)O; Orn = NCCC[C@H](N)C(=O)O; Sar = CNCC(=O)O

Tests used:
Experiment in all cases: cell-based or functional assay
[1] = target: recombinant human MASP2 active protease (amino acids 297-686, C-terminal His Tag) (human, UniProt O00187 297-686)
Target sequence in this assay (O00187 other isoform, or with tags, fused parts or gaps limits assumed): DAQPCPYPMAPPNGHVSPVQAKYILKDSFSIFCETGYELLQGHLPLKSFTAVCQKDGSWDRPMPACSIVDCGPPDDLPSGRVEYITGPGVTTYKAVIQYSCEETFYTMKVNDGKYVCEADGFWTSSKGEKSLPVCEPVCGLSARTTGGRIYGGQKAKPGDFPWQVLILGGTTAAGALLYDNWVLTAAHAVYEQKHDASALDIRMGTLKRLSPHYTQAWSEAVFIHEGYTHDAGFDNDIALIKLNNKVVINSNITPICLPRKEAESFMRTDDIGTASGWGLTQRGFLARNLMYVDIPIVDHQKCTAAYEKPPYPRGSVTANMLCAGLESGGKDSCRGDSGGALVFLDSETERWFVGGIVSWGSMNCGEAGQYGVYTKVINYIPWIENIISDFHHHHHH

[2] = target: T1, recombinant human MASP1 active protease (amino acids 297-699, C-terminal His Tag) (human, UniProt P48740 297-699)
T1 sequence: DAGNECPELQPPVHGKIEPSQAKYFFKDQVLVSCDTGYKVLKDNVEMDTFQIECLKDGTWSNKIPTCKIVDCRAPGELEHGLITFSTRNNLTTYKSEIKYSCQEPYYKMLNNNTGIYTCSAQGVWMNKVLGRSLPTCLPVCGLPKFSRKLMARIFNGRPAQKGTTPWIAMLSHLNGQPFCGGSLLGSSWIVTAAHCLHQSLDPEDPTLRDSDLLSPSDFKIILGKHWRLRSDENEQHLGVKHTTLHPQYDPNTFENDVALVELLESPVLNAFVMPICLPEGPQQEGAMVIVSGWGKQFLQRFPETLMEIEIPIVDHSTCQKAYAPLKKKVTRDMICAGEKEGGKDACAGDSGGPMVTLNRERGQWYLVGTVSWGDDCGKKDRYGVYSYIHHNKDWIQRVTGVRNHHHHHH

[3] = target: T2, recombinant human MASP1 active protease (amino acids 297-699, C-terminal His Tag) (human, UniProt P48740 297-699); remark: listed apart in the source
T2 sequence: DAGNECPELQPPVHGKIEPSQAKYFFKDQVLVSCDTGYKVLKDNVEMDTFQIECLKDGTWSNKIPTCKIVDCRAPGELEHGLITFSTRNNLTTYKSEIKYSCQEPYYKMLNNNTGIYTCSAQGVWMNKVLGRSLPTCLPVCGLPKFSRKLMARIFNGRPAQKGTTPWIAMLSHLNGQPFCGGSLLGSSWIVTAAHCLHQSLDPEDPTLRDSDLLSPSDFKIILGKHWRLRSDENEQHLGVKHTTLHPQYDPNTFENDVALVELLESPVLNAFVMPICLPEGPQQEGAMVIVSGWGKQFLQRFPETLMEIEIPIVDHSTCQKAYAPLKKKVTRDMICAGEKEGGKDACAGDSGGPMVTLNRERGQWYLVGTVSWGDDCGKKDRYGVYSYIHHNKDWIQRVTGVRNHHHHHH

[4] = target: recombinant human MASP2 active protease (amino acids 297-686, C-terminal His Tag) (human, UniProt O00187 297-686); remark: listed apart in the source
Target sequence in this assay (O00187 other isoform, or with tags, fused parts or gaps limits assumed): as the sequence (O00187 other isoform, or with tags, fused parts or gaps limits assumed) above

| human MASP2 IC50 [1] | human MASP1 IC50 [2] | human MASP1 IC50 [3] | human MASP2 IC50 [4] | Binder |
| --- | --- | --- | --- | --- |
| 0.1 µM | 0.002 µM | – | – | [Sar]ICSRSLP[Oic]I[Pen]IP[X4]-OH (disulfide 3-11; N-terminus assumed; SMILES CC[C@H](C)[C@H](NC(=O)CNC)C(=O)N[C@H]1CSSC(C)(C)[C@@H](C(=O)N[C@H](C(=O)N2CCC[C@H]2C(=O)N[C@@H]2CC[C@H](C(=O)O)C2)[C@@H](C)CC)NC(=O)[C@H]([C@@H](C)CC)NC(=O)[C@@H]2C[C@@H]3CCCC[C@@H]3N2C(=O)[C@@H]2CCCN2C(=O)[C@H](CC(C)C)NC(=O)[C@H](CO)NC(=O)[C@H](CCCNC(=N)N)NC(=O)[C@H](CO)NC1=O) [Example 452: ((N-Me)G)-IC+SRSLP-(Oic)-I-(Pen)+IP-((1S,3R)-3-(Amino)cyclopentanecarboxylic acid)-OH] |
| 0.085 µM | 0.0029 µM | – | – | [Sar]ICSRSLP[Oic]I[Pen]IP[β3hP]-OH (disulfide 3-11; N-terminus assumed; SMILES CC[C@H](C)[C@H](NC(=O)CNC)C(=O)N[C@H]1CSSC(C)(C)[C@@H](C(=O)N[C@H](C(=O)N2CCC[C@H]2C(=O)N2CCC[C@H]2CC(=O)O)[C@@H](C)CC)NC(=O)[C@H]([C@@H](C)CC)NC(=O)[C@@H]2C[C@@H]3CCCC[C@@H]3N2C(=O)[C@@H]2CCCN2C(=O)[C@H](CC(C)C)NC(=O)[C@H](CO)NC(=O)[C@H](CCCNC(=N)N)NC(=O)[C@H](CO)NC1=O) [Example 455: ((N-Me)G)-IC+SRSLP-(Oic)-I-(Pen)+IP-(beta-homo-P)-OH] |
| 0.11 µM | 0.0019 µM | – | – | [Sar]ICSRSLP[Oic]I[Pen]IP[βPro(3S)]-OH (disulfide 3-11; N-terminus assumed; SMILES CC[C@H](C)[C@H](NC(=O)CNC)C(=O)N[C@H]1CSSC(C)(C)[C@@H](C(=O)N[C@H](C(=O)N2CCC[C@H]2C(=O)N2CC[C@H](C(=O)O)C2)[C@@H](C)CC)NC(=O)[C@H]([C@@H](C)CC)NC(=O)[C@@H]2C[C@@H]3CCCC[C@@H]3N2C(=O)[C@@H]2CCCN2C(=O)[C@H](CC(C)C)NC(=O)[C@H](CO)NC(=O)[C@H](CCCNC(=N)N)NC(=O)[C@H](CO)NC1=O) [Example 456: ((N-Me)G)-IC+SRSLP-(Oic)-I-(Pen)+IP-((S)-Pyrrolidine-3-carboxylic acid)-OH] |
| – | – | 0.002 µM | 0.073 µM | VICSRS[tBuAla]PPI[Pen]IPD-NH2 (disulfide 3-11; N-terminus assumed; SMILES CC[C@H](C)[C@H](NC(=O)[C@@H](N)C(C)C)C(=O)N[C@H]1CSSC(C)(C)[C@@H](C(=O)N[C@H](C(=O)N2CCC[C@H]2C(=O)N[C@@H](CC(=O)O)C(N)=O)[C@@H](C)CC)NC(=O)[C@H]([C@@H](C)CC)NC(=O)[C@@H]2CCCN2C(=O)[C@@H]2CCCN2C(=O)[C@H](CC(C)(C)C)NC(=O)[C@H](CO)NC(=O)[C@H](CCCNC(=N)N)NC(=O)[C@H](CO)NC1=O) [VIC+SRS-((tBu)A)-PPI-(Pen)+IPD-NH2] |
| 0.056 µM | 0.0025 µM | – | – | [Sar]ICSRSLP[Oic]I[Pen]IP[X9]-OH (disulfide 3-11; N-terminus assumed; SMILES CC[C@H](C)[C@H](NC(=O)CNC)C(=O)N[C@H]1CSSC(C)(C)[C@@H](C(=O)N[C@H](C(=O)N2CCC[C@H]2C(=O)N2CCC[C@H]2CCC(=O)O)[C@@H](C)CC)NC(=O)[C@H]([C@@H](C)CC)NC(=O)[C@@H]2C[C@@H]3CCCC[C@@H]3N2C(=O)[C@@H]2CCCN2C(=O)[C@H](CC(C)C)NC(=O)[C@H](CO)NC(=O)[C@H](CCCNC(=N)N)NC(=O)[C@H](CO)NC1=O) [Example 453: ((N-Me)G)-IC+SRSLP-(Oic)-I-(Pen)+IP-((S)-3-(1-Pyrrolidine-2-yl)-propionic acid)-OH] |
| – | – | 0.002 µM | 0.08 µM | TICSRS[tBuAla]PPI[NMeC]I-NH2 (disulfide 3-11; N-terminus assumed; SMILES CC[C@H](C)[C@H](NC(=O)[C@@H]1CSSC[C@H](NC(=O)[C@@H](NC(=O)[C@@H](N)[C@@H](C)O)[C@@H](C)CC)C(=O)N[C@@H](CO)C(=O)N[C@@H](CCCNC(=N)N)C(=O)N[C@@H](CO)C(=O)N[C@@H](CC(C)(C)C)C(=O)N2CCC[C@H]2C(=O)N2CCC[C@H]2C(=O)N[C@@H]([C@@H](C)CC)C(=O)N1C)C(N)=O) [TIC+SRS-((tBu)A)-PPI-((N-Me)C)+I-NH2] |
| 0.099 µM | 0.002 µM | – | – | [Sar]ICSRSLP[Oic]I[Pen]IPN-OH (disulfide 3-11; N-terminus assumed; SMILES CC[C@H](C)[C@H](NC(=O)CNC)C(=O)N[C@H]1CSSC(C)(C)[C@@H](C(=O)N[C@H](C(=O)N2CCC[C@H]2C(=O)N[C@@H](CC(N)=O)C(=O)O)[C@@H](C)CC)NC(=O)[C@H]([C@@H](C)CC)NC(=O)[C@@H]2C[C@@H]3CCCC[C@@H]3N2C(=O)[C@@H]2CCCN2C(=O)[C@H](CC(C)C)NC(=O)[C@H](CO)NC(=O)[C@H](CCCNC(=N)N)NC(=O)[C@H](CO)NC1=O) [Example 454: ((N-Me)G)-IC+SRSLP-(Oic)-I-(Pen)+IPN-OH] |

More lines, now with the values behind:

| Binder | human MASP2 IC50 [1] | human MASP1 IC50 [2] | human MASP1 IC50 [3] | human MASP2 IC50 [4] |
| --- | --- | --- | --- | --- |
| A[Cba]CSRS[tBuAla]PPI[Pen]IPD-NH2 (disulfide 3-11; N-terminus assumed; SMILES CC[C@H](C)[C@@H]1NC(=O)[C@@H]2CCCN2C(=O)[C@@H]2CCCN2C(=O)[C@H](CC(C)(C)C)NC(=O)[C@H](CO)NC(=O)[C@H](CCCNC(=N)N)NC(=O)[C@H](CO)NC(=O)[C@@H](NC(=O)[C@H](CC2CCC2)NC(=O)[C@H](C)N)CSSC(C)(C)[C@@H](C(=O)N[C@H](C(=O)N2CCC[C@H]2C(=O)N[C@@H](CC(=O)O)C(N)=O)[C@@H](C)CC)NC1=O) [A-(Cba)-C+SRS-((tBu)A)-PPI-(Pen)+IPD-NH2] | – | – | 0.002 µM | 0.024 µM |
| AICSRS[tBuAla]PPI[NMeC]IPD-NH2 (disulfide 3-11; N-terminus assumed; SMILES CC[C@H](C)[C@H](NC(=O)[C@H](C)N)C(=O)N[C@H]1CSSC[C@@H](C(=O)N[C@H](C(=O)N2CCC[C@H]2C(=O)N[C@@H](CC(=O)O)C(N)=O)[C@@H](C)CC)N(C)C(=O)[C@H]([C@@H](C)CC)NC(=O)[C@@H]2CCCN2C(=O)[C@@H]2CCCN2C(=O)[C@H](CC(C)(C)C)NC(=O)[C@H](CO)NC(=O)[C@H](CCCNC(=N)N)NC(=O)[C@H](CO)NC1=O) [AIC+SRS-((tBu)A)-PPI-((N-Me)C)+IPD-NH2] | – | – | 0.00195 µM | 0.225 µM |
| [Sar]ICSRS[tBuAla]PPI[Pen]IPD[Orn][Orn][Orn]-NH2 (disulfide 3-11; N-terminus assumed; SMILES CC[C@H](C)[C@H](NC(=O)CNC)C(=O)N[C@H]1CSSC(C)(C)[C@@H](C(=O)N[C@H](C(=O)N2CCC[C@H]2C(=O)N[C@@H](CC(=O)O)C(=O)N[C@@H](CCCN)C(=O)N[C@@H](CCCN)C(=O)N[C@@H](CCCN)C(N)=O)[C@@H](C)CC)NC(=O)[C@H]([C@@H](C)CC)NC(=O)[C@@H]2CCCN2C(=O)[C@@H]2CCCN2C(=O)[C@H](CC(C)(C)C)NC(=O)[C@H](CO)NC(=O)[C@H](CCCNC(=N)N)NC(=O)[C@H](CO)NC1=O) [((N-Me)G)-IC+SRS-((tBu)A)-PPI-(Pen)+IPD-(Orn)-(Orn)-(Orn)-NH2] | – | – | 0.002 µM | 0.13 µM |
| [Sar]ICSRS[tBuAla]PPI[Pen]IP[Sar][Sar][Sar]-NH2 (disulfide 3-11; N-terminus assumed; SMILES CC[C@H](C)[C@H](NC(=O)CNC)C(=O)N[C@H]1CSSC(C)(C)[C@@H](C(=O)N[C@H](C(=O)N2CCC[C@H]2C(=O)N(C)CC(=O)N(C)CC(=O)N(C)CC(N)=O)[C@@H](C)CC)NC(=O)[C@H]([C@@H](C)CC)NC(=O)[C@@H]2CCCN2C(=O)[C@@H]2CCCN2C(=O)[C@H](CC(C)(C)C)NC(=O)[C@H](CO)NC(=O)[C@H](CCCNC(=N)N)NC(=O)[C@H](CO)NC1=O) [((N-Me)G)-IC+SRS-((tBu)A)-PPI-(Pen)+IP-((N-Me)G)-((N-Me)G)-((N-Me)G)-NH2] | – | – | 0.002 µM | 0.047 µM |
| [Sar]ICSRS[tBuAla]PPI[Pen]IP[NH(CH2CH2O)5CH2CO]-NH2 (disulfide 3-11; N-terminus assumed; SMILES CC[C@H](C)[C@H](NC(=O)CNC)C(=O)N[C@H]1CSSC(C)(C)[C@@H](C(=O)N[C@H](C(=O)N2CCC[C@H]2C(=O)NCCOCCOCCOCCOCCOCC(N)=O)[C@@H](C)CC)NC(=O)[C@H]([C@@H](C)CC)NC(=O)[C@@H]2CCCN2C(=O)[C@@H]2CCCN2C(=O)[C@H](CC(C)(C)C)NC(=O)[C@H](CO)NC(=O)[C@H](CCCNC(=N)N)NC(=O)[C@H](CO)NC1=O) [((N-Me)G)-IC+SRS-((tBu)A)-PPI-(Pen)+IP-(PEG5-CH2CO2H (18 atoms))-NH2] | – | – | 0.002 µM | 0.042 µM |
| [Orn]ICSRSLP[Oic]I[Pen]IPD-NH2 (disulfide 3-11; N-terminus assumed; SMILES CC[C@H](C)[C@H](NC(=O)[C@@H](N)CCCN)C(=O)N[C@H]1CSSC(C)(C)[C@@H](C(=O)N[C@H](C(=O)N2CCC[C@H]2C(=O)N[C@@H](CC(=O)O)C(N)=O)[C@@H](C)CC)NC(=O)[C@H]([C@@H](C)CC)NC(=O)[C@@H]2C[C@@H]3CCCC[C@@H]3N2C(=O)[C@@H]2CCCN2C(=O)[C@H](CC(C)C)NC(=O)[C@H](CO)NC(=O)[C@H](CCCNC(=N)N)NC(=O)[C@H](CO)NC1=O) [(Orn)-IC+SRSLP-(Oic)-I-(Pen)+IPD-NH2] | – | – | 0.002 µM | 0.076 µM |
